Values of other authors in paper PMC6307816.

Molecular target: EGFR (Homo sapiens) (UniProt P00533)

Kd: < 0.2 nM
Substance: EGF (from UniProt P01133)
